From paper PMC9056652
Where a chain is given by its changes, count along the chain named.

T1: wt-Obe (tag-free obelin) (UniProt Q27709 1-195)
T1 sequence: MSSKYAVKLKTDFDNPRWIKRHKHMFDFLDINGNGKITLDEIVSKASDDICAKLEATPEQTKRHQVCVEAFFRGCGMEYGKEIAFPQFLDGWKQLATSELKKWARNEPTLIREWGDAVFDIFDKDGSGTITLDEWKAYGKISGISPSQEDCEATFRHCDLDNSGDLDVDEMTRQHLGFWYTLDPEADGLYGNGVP

B1: O35 (structured_RNA)
RNA: GGGAGACAAGAAUAAACGCUCAAUAGGGUACGCGGACAGCGAUGGGACCGCGUUGCCAGCCCCUUCGACAGGAGGCUCACAACAGGC
modifications: 2'-F on all C and U
B2: O79t (structured_RNA)
RNA: GGGAGACAAGAAUAAACGCUCAAUGUGAAGUCGCAUUUAAUUGCUGGCGCCGUUUACUUGCUC
modifications: 2'-F on all C and U
B3: O3t (structured_RNA)
RNA: B2 RNA with U36C, A40G, C50U
modifications: 2'-F on all C and U
B4: O79 (structured_RNA)
RNA: GGGAGACAAGAAUAAACGCUCAAUGUGAAGUCGCAUUUAAUUGCUGGCGCCGUUUACUUGCUCUUCGACAGGAGGCUCACAACAGGC
modifications: 2'-F on all C and U
B5: O4t (structured_RNA)
RNA: GGGAGACAAGAAUAAACGCUCAACUAGGCUGUGCGCGGUGCCCUAUCUUAUCCGCGCCUCUCCU
modifications: 2'-F on all C and U
B6: O5 (structured_RNA)
RNA: GGGAGACAAGAAUAAACGCUCAAGUUGUACGCGGUUGGCAAUCCGCGUUGCUUUACGGGUUCCUUCGACAGGAGGCUCACAACAGGC
modifications: 2'-F on all C and U
B7: O6t (structured_RNA)
RNA: GGGAGACAAGAAUAAACGCUCAAGACGUGCGCGGGAAAGACCGACGCUCUACCCCUACAAGCU
modifications: 2'-F on all C and U

Key:
[1] = target: T1, wt-Obe (tag-free obelin); assay: DRaCALA
[2] = target: T1, wt-Obe (tag-free obelin); assay: solid-phase bioluminescent assay

Binder | binding result [1] | Kd [1] [nM] | other results
B1 | no binding | – | –
B2 | – | 720 | –
B3 | – | 1370 | –
B4 | – | 690 | –
B5 | no binding | – | –
B6 | – | – | binding result [2]: binds
B7 | no binding | – | –
